Experimental data taken from article PMC12310515 (2025).
Read-outs that look alike come from different tables or passages of the source.

B1: KIR2DS1 (SPR protein) (receptor)
chain: HEGVHRKPSLLAHPGRLVKSEETVILQCWSDVMFEHFLLHREGMFNDTLRLIGEHHDGVSKANFSISRMKQDLAGTYRCYGSVTHSPYQLSAPSDPLDIVIIGLYEKPSLSAQPGPTVLAGENVTLSCSSRSSYDMYHLSREGEAHERRLPAGTKVNGTFQANFPLGPATHGGTYRCFGSFRDSPYEWSKSSDPLLVSVTGNPSNSWPSPTEPSSETGNPRHLH
B2: KIR2DL1 (residues 27-221) (domain or fragment)
chain: RKPSLLAHPGRLVKSEETVILQCWSDVMFEHFLLHREGMFNDTLRLIGEHHDGVSKANFSISRMTQDLAGTYRCYGSVTHSPYQVSAPSDPLDIVIIGLYEKPSLSAQLGPTVLAGENVTLSCSSRSSYDMYHLSREGEAHERRLPAGPKVNGTFQADFPLGPATHGGTYRCFGSFHDSPYEWSKSSDPLLVSVT
modifications: N-linked glycan on N67 (N-acetylglucosamine-fucose core seen in the structures)

Experiments:
Assay in all cases: SPR
KEN-04 [1] = target: T1, KEN-04 (P. falciparum pfKE01)
KEN-02 [2] = target: T2, KEN-02 (P. falciparum pfKE01)
SEN-08 [3] = target: T3, SEN-08 (P. falciparum pfSN01)
SEN-12 [4] = target: T4, SEN-12 (P. falciparum pfSN01)
KEN-06 [5] = target: T5, KEN-06 (P. falciparum pfKE01)
SEN-01 [6] = target: T6, SEN-01 (P. falciparum pfSN01)
KEN-04 [7] = target: T1, KEN-04; remark: listed apart in the source
KEN-02 [8] = target: T2, KEN-02; remark: listed apart in the source
SEN-08 [9] = target: T3, SEN-08; remark: listed apart in the source
SEN-12 [10] = target: T4, SEN-12; remark: listed apart in the source
KEN-06 [11] = target: T5, KEN-06; remark: listed apart in the source
SEN-01 [12] = target: T6, SEN-01; remark: listed apart in the source
KIR2DS1 (SPR protein) = target: B1
[13] = target: B2
[14] = target: one of the six Kenyan RIFINs (pfKE01) that bound to LILRB1

For B1, the Kd (KEN-04 [1]) was 5.4 µM, the Kd (KEN-02 [2]) was 2600 nM and the Kd (SEN-08 [3]) was 2100 nM. The Kd (SEN-12 [4]) was 500 nM, the Kd (KEN-06 [5]) was 900 nM and the Kd (SEN-01 [6]) was 1100 nM.

For B2, the Kd (KEN-04 [7]) was 2000 nM, the Kd (KEN-02 [8]) was 2200 nM and the Kd (SEN-08 [9]) was 3.5 µM. The Kd (SEN-12 [10]) was 400 nM, the Kd (KEN-06 [11]) was 400 nM and the Kd (SEN-01 [12]) was 3.4 µM.

B3: KEN-01 (mFc-tagged, SPR) (natural protein)
chain: AKGAAAAEAARIPAAIDAVIKGIVTKFGVSTESVQGLKSLFTANTYNDVTKIARAINEQYNPSSCLTGGSGADNSICPWAMENFFAARKIPGFIQREAVSMNDVIEKTVKTIVSDAPKTAETAAKKATEG
B3 showed a Kd (KIR2DS1 (SPR protein)) of 300 nM and a Kd [13] of 100 nM.

B4: LILRB1 (receptor)
chain: GHLPKPTLWAEPGSVITQGSPVTLRCQGGQETQEYRLYREKKTALWITRIPQELVKKGQFPIPSITWEHAGRYRCYYGSDTAGRSESSDPLELVVTGAYIKPTLSAQPSPVVNSGGNVILQCDSQVAFDGFSLCKEGEDEHPQCLNSQPHARGSSRAIFSVGPVSPSRRWWYRCYAYDSNSPYEWSLPSDLLELLVLGVSKKPSLSVQPGPIVAPEETLTLQCGSDAGYNRFVLYKDGERDFLQLAGAQPQAGLSQANFTLGPVSRSYGGQYRCYGAHNLSSEWSAPSDPLDILIAGQFYDRVSLSVQPGPTVASGENVTLLCQSQGWMQTFLLTKEGAADDPWRLRSTYQSQKYQAEFPMGPVTSAHAGTYRCYGSQSSKPYLLTHPSDPLELVVSGPSGGPSSPTTGPTSTSGPEDQPLTPTGSDPQSGLGRHLGVVIGILVAVILLLLLLLLLFLILRHRRQGKHWTSTQRKADFQHPAGAVGPEPTDRGLQWRSSPAADAQEENLYAAVKHTQPEDGVEMDTRSPHDEDPQAVTYAEVKHSRPRREMASPPSPLSGEFLDTKDRQAEEDRQMDTEAAASEAPQDVTYAQLHSLTLRREATEPPPSQEGPSPAVPSIYATLAIH
B4 showed a Kd (SEN-08 [9]) of 5.5 µM and a Kd [14] of 2600 nM.
